Where two headings read alike, the source gives them in different places.
Assays:
[1] = target: PorX (wild type, non-phosphorylated) (Porphyromonas gingivalis W83) (UniProt B2RJJ3); assay: SAXS
[2] = target: PorX (wild type, non-phosphorylated) (Porphyromonas gingivalis W83) (UniProt B2RJJ3); assay: SAXS; remark: listed apart in the source
PorX [3] = assay: SEC-MALLS absolute molecular weight; details: reference: PorX with MgCl2 alone; sites D58
PorX [4] = assay: small-angle X-ray scattering in solution; details: reference: PorX without BeF3; sites D58
[5] = target: Selenomethionine variant of PorX, phosphorylated with acetyl phosphate (Porphyromonas gingivalis W83) (UniProt B2RJJ3); assay: SEC-MALS
crystal structure = target: the molecule itself; assay: crystal structure
SEC [6] = target: the molecule itself; assay: SEC
SEC [7] = target: the molecule itself; assay: SEC; remark: listed apart in the source

Q: Which stoichiometry N [1] does the source give for “PorX (wild type, non-phosphorylated) (from UniProt B2RJJ3 1-518) (natural protein)” here?
A: 2

Q: And the stoichiometry N [2]?
A: 2

Q: With “PorX PorX pre-incubated with AcP and MgCl2” as the molecule, how does the “other: MALLS molecular weight” value (PorX [3]) read?
A: gained; reference 70.2

Q: For PorX PorX with BeF3 and MgCl2, which “other: radius of gyration” value (PorX [4]) is on record?
A: gained; reference 29.6

Q: For “Selenomethionine variant of PorX, phosphorylated with acetyl phosphate (from UniProt B2RJJ3 1-518) (natural protein)”, which stoichiometry N [5] is on record?
A: 2

B1: PorX T272A, selenomethionine variant (T272A-pGpG crystal) (natural protein, Porphyromonas gingivalis W83)
chain: MEKNMRPYTVLWADDEIDLLKPHILFLEQKGYQVTPVLSGNDAIEALQNNDFDIVFLDENMPGIGGLDALQKIKELKPYTPVVMITKSEEEHIMTQAIGGKIADYLIKPVNPNQLLLSLKKNLQQHSIISETTNTNYRQEFVQLGAQMSGKLSFEEWKELYRRIVFWEIELEQADRQMGELLEMQKQEANRLFARFVTQNYREWIAKPDTRPTMSPDLFKQKVFPLLDNGEKVFFILIDNFRQDQWESVKSMLSEFYTFEEDMYLSILPTAAQYARNAIFSGLMPLQIEKMFPDLWVDEESEEGKNLNEEPMIRTLIERYRKHYSFSYNKVYETKFGERLLGQIRSLSQNQLNVIVLNFVDMMSHARTDSKMIRELASNEAAYRSLTKSWFKHSTTYNLFRSIAEMGYKVVLTTDHGTIQVKNPVKVIGDRSTNTNLRYKIGKNLDYNPKEVFEIKDPASVGLPHNNLSDKFIFTKEDDFFAYPNNYNYYVQYYRNTFQHGGISLEEMLVPVITMQPK
modifications: selenomethionine
Q: Does B1 bind (crystal structure)?
A: binds

B2: PorX T272A incubated with acetyl phosphate (phosphorylated) (natural protein, Porphyromonas gingivalis W83)
chain: B1 chain
modifications: phosphorylated with acetyl phosphate (attenuated against the wild type)
Q: Does B2 bind (SEC [6])?
A: binds

B3: PorX T272A (natural protein, Porphyromonas gingivalis W83)
chain: B1 chain
Q: Does B3 bind (SEC [7])?
A: binds
